What was measured:
AtTGA1:HiBiT [1] = target: T1, AtTGA1:HiBiT (Arabidopsis thaliana, UniProt Q39237 1-368); experiment: qTFD (HiBiT luminescence microplate, relative to rnd); strong rQ; qTFD: 25 mM Tris-HCl pH 8.0, 100 mM KCl, 2 mM DTT, 1 mM EDTA, 0.1% BSA, 500 ng poly(dI-dC), 5% glycerol, 0.05% IGEPAL CA630, 1.5-50 nM protein, 1-3 h, room temperature; EMSA as in cited earlier work; conditions: protein: recombinant; tags: C-terminal HiBiT (VSGWRLFKKIS); pH9GW vector, Ni-NTA purified; chain copies: 2; label: none; blunt
T1 sequence: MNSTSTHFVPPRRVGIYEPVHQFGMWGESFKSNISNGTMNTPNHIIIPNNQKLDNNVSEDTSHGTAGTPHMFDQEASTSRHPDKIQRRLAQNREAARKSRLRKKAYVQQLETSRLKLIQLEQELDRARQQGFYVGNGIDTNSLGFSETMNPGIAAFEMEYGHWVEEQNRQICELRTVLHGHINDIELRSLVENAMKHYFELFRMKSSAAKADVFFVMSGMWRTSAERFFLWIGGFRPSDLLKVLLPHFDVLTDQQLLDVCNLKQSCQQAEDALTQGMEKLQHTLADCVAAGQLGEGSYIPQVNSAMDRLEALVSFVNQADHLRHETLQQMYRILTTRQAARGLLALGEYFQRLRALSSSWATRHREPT

AtTGA1:HiBiT [2] = target: T1, AtTGA1:HiBiT; experiment: qTFD (HiBiT luminescence microplate, relative to rnd); qTFD: 25 mM Tris-HCl pH 8.0, 100 mM KCl, 2 mM DTT, 1 mM EDTA, 0.1% BSA, 500 ng poly(dI-dC), 5% glycerol, 0.05% IGEPAL CA630, 1.5-50 nM protein, 1-3 h, room temperature; EMSA as in cited earlier work; conditions: protein: recombinant; tags: C-terminal HiBiT (VSGWRLFKKIS); pH9GW vector, Ni-NTA purified; chain copies: 2; label: none; blunt
AtTGA1:HiBiT [3] = target: T1, AtTGA1:HiBiT; experiment: EMSA; 1.5-15 nM protein; reduced by unlabelled competitor; qTFD: 25 mM Tris-HCl pH 8.0, 100 mM KCl, 2 mM DTT, 1 mM EDTA, 0.1% BSA, 500 ng poly(dI-dC), 5% glycerol, 0.05% IGEPAL CA630, 1.5-50 nM protein, 1-3 h, room temperature; EMSA as in cited earlier work; conditions: protein: recombinant; tags: C-terminal HiBiT (VSGWRLFKKIS); pH9GW vector, Ni-NTA purified; chain copies: 2; label: Cy5 (primers); blunt

B1: TFBS_02 (dsDNA)
DNA 1: TAGCGAAGTACGATCCCGGACCGCTACATTCCAAATAGTCTGACGTAAGCAATGACAAAACTCACCTACATGGCCATCACGCAGTA
DNA 2: TACTGCGTGATGGCCATGTAGGTGAGTTTTGTCATTGCTTACGTCAGACTATTTGGAATGTAGCGGTCCGGGATCGTACTTCGCTA
B1: binds (AtTGA1:HiBiT [1]).

B2: CaMV35s as1 (dsDNA)
DNA 1: ATGAAGACGCTGGGTTTACATGGGAATGGCTGACGTAAGGGATGACGCACATGCTTCTGTTCTAACAGGCTAGGATATAA
DNA 2: TTATATCCTAGCCTGTTAGAACAGAAGCATGTGCGTCATCCCTTACGTCAGCCATTCCCATGTAAACCCAGCGTCTTCAT
B2: binds (AtTGA1:HiBiT [2]).

B3: CaMV35s as1 80 bp Cy5 EMSA probe (dsDNA)
DNA 1: B2 DNA 1
DNA 2: B2 DNA 2
B3: binds (AtTGA1:HiBiT [3]).

— article PMC10661027, “Tuning Plant Promoters Using a Simple Split Luciferase Method to Assess Transcription Factor-DNA Interactions”
